According to PMC6609509 (Molecular psychiatry, 2019):

Target: full-length recombinant ABI1 (UniProt Q8IZP0-5 1-476)
Assay: SPR

B1: Shank3 fragment 4 (aa 668–858), S685I (domain or fragment, mouse, UniProt Q4ACU6 668-858, looked up)
chain: EEDGARRRAPPPPKRAPITTLTLRSKSMTAELEELASIRRRKGEKLDEILAVAAEPTLRPDIADADSRAATVKQRPTSRRITPAEISSLFERQGLPGPEKLPGSLRKGIPRTKSVGEDEKLASLLEGRFPRSTSMQDTVREGRGIPPPPQTAPPPPPAPYYFDSGPPPTFSPPPPPGRAYDTVRSSFKPGL
fold increase in KD against wild-type fragment 4: ~4 fold
